Laboratory results taken from the supplement of paper PMC9112550, “Optimization of the antimicrobial peptide Bac7 by deep mutational scanning” (BMC Biology, 2022).

Test system: Escherichia coli TOP10
Assay: shrunken log2 fold change of peptide-encoding DNA abundance (4.5 h post-induction vs induction); higher = less antimicrobial activity (less host growth inhibition)
Details: time post-induction: 4.5 h; library: site-saturation at positions 5, 18, 19, 20
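Note: peptides expressed intracellularly from a pBAD plasmid library in pooled LB shake-flask culture, induced with 0.3% L-arabinose, DNA abundance read by NGS, three biological replicates, DESeq2 with apeglm shrinkage.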

Row | Sequence | shrunken log2 fold change
1 | RRIRTRPPRLPRPRPRPYCNPRP | -1.32
2 | RRIRMRPPRLPRPRPRPNTAPRP | 0.0661
3 | RRIRVRPPRLPRPRPRPCRQPRP | -0.0134
4 | RRIRLRPPRLPRPRPRPWATPRP | -0.0496
5 | RRIRDRPPRLPRPRPRPMNWPRP | 0.0175
6 | RRIRPRPPRLPRPRPRPSYIPRP | -0.458
7 | RRIRERPPRLPRPRPRPRDEPRP | 0.307
8 | RRIRSRPPRLPRPRPRPHDVPRP | -0.0229
9 | RRIRGRPPRLPRPRPRPWLLPRP | 0.216
10 | RRIRRRPPRLPRPRPRPWWTPRP | 0.0815
11 | RRIRPRPPRLPRPRPRPRKNPRP | 0.296
12 | RRIRGRPPRLPRPRPRPHRRPRP | 0.205
13 | RRIRVRPPRLPRPRPRPWNNPRP | -0.204
14 | RRIRRRPPRLPRPRPRPRYSPRP | -0.49
15 | RRIRTRPPRLPRPRPRPCEDPRP | -0.0385
16 | RRIRQRPPRLPRPRPRPNRKPRP | -0.141
17 | RRIRRRPPRLPRPRPRPIMPPRP | -0.188
18 | RRIRARPPRLPRPRPRPRGEPRP | 0.613
19 | RRIRQRPPRLPRPRPRPMIRPRP | -0.0156
20 | RRIRNRPPRLPRPRPRPFFKPRP | 0.0559
21 | RRIRWRPPRLPRPRPRPAIGPRP | 0.0325
22 | RRIRARPPRLPRPRPRPSEGPRP | -0.00533
23 | RRIRDRPPRLPRPRPRPQRLPRP | 0.116
24 | RRIRCRPPRLPRPRPRPRCPPRP | 0.418
25 | RRIRHRPPRLPRPRPRPGMTPRP | -0.039

Row | Sequence | shrunken log2 fold change
26 | RRIRFRPPRLPRPRPRPPESPRP | 1.13
27 | RRIRWRPPRLPRPRPRPCIPPRP | -0.0746
28 | RRIRSRPPRLPRPRPRPFFAPRP | 0.205
29 | RRIRKRPPRLPRPRPRPEKNPRP | 0.987
30 | RRIRMRPPRLPRPRPRPRHTPRP | 1.15
31 | RRIRKRPPRLPRPRPRPLFPPRP | 0.161
32 | RRIRPRPPRLPRPRPRPRKKPRP | 0.0638
33 | RRIRCRPPRLPRPRPRPGDLPRP | -0.314
34 | RRIRTRPPRLPRPRPRPCTAPRP | -0.0896
35 | RRIRPRPPRLPRPRPRPFGMPRP | -0.749
36 | RRIRVRPPRLPRPRPRPAMRPRP | 0.6
37 | RRIRRRPPRLPRPRPRPCNVPRP | 0.0391
38 | RRIRRRPPRLPRPRPRPCDCPRP | 0.00422
39 | RRIRDRPPRLPRPRPRPPRNPRP | 0.27
40 | RRIRQRPPRLPRPRPRPDVTPRP | 0.143
41 | RRIRSRPPRLPRPRPRPLCEPRP | 0.0616
42 | RRIRWRPPRLPRPRPRPKGPPRP | 3.65
43 | RRIRMRPPRLPRPRPRPRPSPRP | 1.12
44 | RRIRPRPPRLPRPRPRPHQRPRP | -0.232
45 | RRIRQRPPRLPRPRPRPWVTPRP | -0.219
46 | RRIRFRPPRLPRPRPRPETYPRP | -0.0354
47 | RRIRKRPPRLPRPRPRPYSQPRP | 0.0349
48 | RRIRRRPPRLPRPRPRPVTHPRP | 0.598
49 | RRIRCRPPRLPRPRPRPGHHPRP | -0.439
50 | RRIRDRPPRLPRPRPRPGQGPRP | 0.257

Row | Sequence | shrunken log2 fold change
51 | RRIRPRPPRLPRPRPRPPTFPRP | -0.142
52 | RRIRNRPPRLPRPRPRPCQMPRP | -0.0139
53 | RRIRMRPPRLPRPRPRPRATPRP | 1.57
54 | RRIRCRPPRLPRPRPRPCKYPRP | -0.227
55 | RRIRRRPPRLPRPRPRPWSRPRP | 0.0777
56 | RRIRERPPRLPRPRPRPFVIPRP | -0.478
57 | RRIRLRPPRLPRPRPRPSGGPRP | -0.153
58 | RRIRLRPPRLPRPRPRPETAPRP | 0.325
59 | RRIRLRPPRLPRPRPRPSAPPRP | 0.054
60 | RRIRYRPPRLPRPRPRPWTHPRP | -0.00149
61 | RRIRIRPPRLPRPRPRPNRIPRP | -0.481
62 | RRIRARPPRLPRPRPRPHAIPRP | 0.0503
63 | RRIRERPPRLPRPRPRPYLDPRP | -0.149
64 | RRIRCRPPRLPRPRPRPVSPPRP | 0.198
65 | RRIRGRPPRLPRPRPRPWQYPRP | -0.0381
66 | RRIRDRPPRLPRPRPRPRVLPRP | 0.173
67 | RRIRGRPPRLPRPRPRPVKPPRP | 0.268
68 | RRIRNRPPRLPRPRPRPGDHPRP | -0.0463
69 | RRIRQRPPRLPRPRPRPCVEPRP | -0.206
70 | RRIRMRPPRLPRPRPRPRMHPRP | 0.118
71 | RRIRLRPPRLPRPRPRPAIFPRP | -0.391
72 | RRIRYRPPRLPRPRPRPWVRPRP | -0.108
73 | RRIRLRPPRLPRPRPRPLAFPRP | -0.092
74 | RRIRARPPRLPRPRPRPPYFPRP | 0.314
75 | RRIRDRPPRLPRPRPRPTCYPRP | 0.289

Row | Sequence | shrunken log2 fold change
76 | RRIRQRPPRLPRPRPRPVICPRP | -0.0945
77 | RRIRHRPPRLPRPRPRPVKTPRP | -0.164
78 | RRIRIRPPRLPRPRPRPNYPPRP | -0.565
79 | RRIRNRPPRLPRPRPRPTETPRP | -0.00947
80 | RRIRKRPPRLPRPRPRPTEWPRP | 0.0407
81 | RRIRQRPPRLPRPRPRPLCMPRP | -0.37
82 | RRIRKRPPRLPRPRPRPHQYPRP | -0.293
83 | RRIRLRPPRLPRPRPRPWPSPRP | 0.341
84 | RRIRFRPPRLPRPRPRPYSWPRP | -0.159
85 | RRIRQRPPRLPRPRPRPRVEPRP | -0.0308
86 | RRIRTRPPRLPRPRPRPLQCPRP | 0.174
87 | RRIRWRPPRLPRPRPRPFHCPRP | -0.026
88 | RRIRKRPPRLPRPRPRPVHAPRP | 0.464
89 | RRIRERPPRLPRPRPRPKVGPRP | 0.0685
90 | RRIRQRPPRLPRPRPRPCQLPRP | -0.0105
91 | RRIRQRPPRLPRPRPRPHMIPRP | -0.515
92 | RRIRLRPPRLPRPRPRPFQIPRP | -0.109
93 | RRIRGRPPRLPRPRPRPADLPRP | 0.604
94 | RRIRCRPPRLPRPRPRPNFYPRP | -0.228
95 | RRIRFRPPRLPRPRPRPMRYPRP | 0.0824
96 | RRIRPRPPRLPRPRPRPYERPRP | 0.0304
97 | RRIRPRPPRLPRPRPRPKNVPRP | -0.169
98 | RRIRQRPPRLPRPRPRPKMTPRP | 0.00734
99 | RRIRARPPRLPRPRPRPTWAPRP | 0.621
100 | RRIRHRPPRLPRPRPRPFRMPRP | -0.625

Row | Sequence | shrunken log2 fold change
101 | RRIRNRPPRLPRPRPRPSAGPRP | -0.225
102 | RRIRGRPPRLPRPRPRPIQVPRP | 0.118
103 | RRIRYRPPRLPRPRPRPGYEPRP | 0.026
104 | RRIRKRPPRLPRPRPRPNAGPRP | -0.00783
105 | RRIRNRPPRLPRPRPRPYYCPRP | -0.0454
106 | RRIRARPPRLPRPRPRPQSAPRP | 0.153
107 | RRIRERPPRLPRPRPRPPDYPRP | -0.202
108 | RRIRVRPPRLPRPRPRPGNMPRP | 0.151
109 | RRIRYRPPRLPRPRPRPCLLPRP | -1.04
110 | RRIRARPPRLPRPRPRPNDCPRP | 0.0748
111 | RRIRARPPRLPRPRPRPQDVPRP | -0.136
112 | RRIRLRPPRLPRPRPRPQTRPRP | 0.08
113 | RRIRWRPPRLPRPRPRPQGAPRP | 0.988
114 | RRIRLRPPRLPRPRPRPKSQPRP | 0.00795
115 | RRIRVRPPRLPRPRPRPNLIPRP | -0.149
116 | RRIRWRPPRLPRPRPRPQHAPRP | -0.0577
117 | RRIRHRPPRLPRPRPRPNTIPRP | -0.903
118 | RRIRTRPPRLPRPRPRPMMCPRP | -0.59
119 | RRIRFRPPRLPRPRPRPTPNPRP | 0.296
120 | RRIRKRPPRLPRPRPRPCQDPRP | 0.0115
121 | RRIRVRPPRLPRPRPRPPDNPRP | -0.00642
122 | RRIRTRPPRLPRPRPRPVCHPRP | -0.173
123 | RRIRQRPPRLPRPRPRPMMNPRP | -0.127
124 | RRIRLRPPRLPRPRPRPNNFPRP | -0.184
125 | RRIRRRPPRLPRPRPRPDTEPRP | 0.0209

Row | Sequence | shrunken log2 fold change
126 | RRIRGRPPRLPRPRPRPKFTPRP | 0.12
127 | RRIRKRPPRLPRPRPRPLGTPRP | 0.388
128 | RRIRERPPRLPRPRPRPCYFPRP | -0.917
129 | RRIRRRPPRLPRPRPRPCCQPRP | 0.0136
130 | RRIRCRPPRLPRPRPRPMPCPRP | -0.688
131 | RRIRHRPPRLPRPRPRPCIPPRP | -0.809
132 | RRIRTRPPRLPRPRPRPITDPRP | 0.177
133 | RRIRVRPPRLPRPRPRPDERPRP | 0.139
134 | RRIRERPPRLPRPRPRPELTPRP | 0.534
135 | RRIRIRPPRLPRPRPRPPSHPRP | -0.0543
136 | RRIRNRPPRLPRPRPRPPMHPRP | 0.0449
137 | RRIRQRPPRLPRPRPRPQPHPRP | 0.158
138 | RRIRDRPPRLPRPRPRPGMKPRP | -0.00884
139 | RRIRARPPRLPRPRPRPFRYPRP | -0.283
140 | RRIRCRPPRLPRPRPRPRMMPRP | -0.11
141 | RRIRWRPPRLPRPRPRPSAIPRP | -0.201
142 | RRIRWRPPRLPRPRPRPYQRPRP | -0.85
143 | RRIRRRPPRLPRPRPRPNVQPRP | 0.0253
144 | RRIRCRPPRLPRPRPRPVMDPRP | -0.0102
145 | RRIRARPPRLPRPRPRPKIDPRP | 0.115
146 | RRIRFRPPRLPRPRPRPRVAPRP | 0.439
147 | RRIRCRPPRLPRPRPRPIYHPRP | -0.905
148 | RRIRMRPPRLPRPRPRPCTQPRP | -0.111
149 | RRIRMRPPRLPRPRPRPNLPPRP | -0.0556
150 | RRIRARPPRLPRPRPRPFDTPRP | -0.333
